The values that follow come from paper PMC6993865 (Biochemical Journal, 2020).

The target in the assay is T1, chymotrypsin-treated recombinant P. falciparum SUB1 (P. falciparum, UniProt Q8I0V0 218-688).
T1 construct: subtilisin-like protease SUB1, P. falciparum, PF3D7_0507500; recombinant, chymotrypsin-treated; also called rPfSUB1; PfSUB1
T1 sequence: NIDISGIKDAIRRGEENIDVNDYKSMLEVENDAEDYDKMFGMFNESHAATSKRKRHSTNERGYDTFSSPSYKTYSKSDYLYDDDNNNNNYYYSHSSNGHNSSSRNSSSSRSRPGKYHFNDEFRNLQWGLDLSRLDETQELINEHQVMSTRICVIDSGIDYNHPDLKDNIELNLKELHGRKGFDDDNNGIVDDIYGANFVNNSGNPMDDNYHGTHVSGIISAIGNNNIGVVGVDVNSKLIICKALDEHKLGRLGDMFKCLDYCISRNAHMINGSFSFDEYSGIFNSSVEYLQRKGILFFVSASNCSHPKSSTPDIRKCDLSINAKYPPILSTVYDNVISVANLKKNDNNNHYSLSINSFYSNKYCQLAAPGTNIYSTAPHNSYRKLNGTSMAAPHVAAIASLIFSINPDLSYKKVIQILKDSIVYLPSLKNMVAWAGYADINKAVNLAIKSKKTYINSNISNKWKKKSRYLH
The assay can be described thus: enzyme inhibition kinetics (fluorogenic peptide substrate); rSUB1-ProM (7.81-250 nM final) added to ongoing hydrolysis of SERA4st1F-6R12 (0.1 µM, well below Km) by rPfSUB1 (0.045 U in 100 µl); 25 mM Tris-HCl pH 8.2, 25 mM CHAPS, 12 mM CaCl2; 21°C; apparent tight-binding inhibition constant, Ki(app) ~ Ki. The following applies: both partners purified.

“And” between values parts separate entries of the source, which are not always exact repeats. Identical values can stand only once.

B1: recombinant Plasmodium falciparum SUB1-ProM (SUB1 propeptide mimic), GST-free (natural protein)
chain: QVTPAGTVLNSNSALISRRINRRKMKNCNNNDLLKVLKMETTYNELPAHNLLMSSKNDINKLFDYINKNEELSKLMNSCGTYVYLKYLGVVIFSIKENVQISHLSEFIQYLLNKNVCIEFNQNVML
notes: SUB1-ProM, P. falciparum 3D7, PF3D7_0507400, residues 28-153 of the 153-residue protein (lacks the predicted 27-residue signal peptide); synthetic gene; also called rSUB1-ProM; PfSUB1-ProM; source: E. coli BL21(R2), purified (Glutathione Sepharose 4B, PreScission cleavage, Superdex 200)
As to B1, the Ki is 5.67 nM and 5.34 nM.
